Measurements as given in patent US7494645B2, “Lipid phosphate phosphatases and uses thereof for treating neuronal diseases” (Charite Universitaetsmedzin-Berlin, priority 2002, dated 2009).
Entries after “also recorded” stand apart in the source; their conditions may differ.

Experiments:
[1] = tested on: PRG-3 mRNA; assay: PRG-3 mRNA in situ hybridization after kainate administration in vivo; design: species or system rat; details: 10 mg/kg i.p.
Description: For hybridization, we used two antisense oligonucleotides which both gave essentially the same hybridization signal: 5′-GCAGAGGTCTGAATTCTAGTGTCTATCGTTATAGTTCCTTAACAGTGTGGG-3′ (SEQ ID NO. 37) and 5′-CATCCTTCTGTAGTAGCTTTCTGCCTCTGCCTCCACTTCTCTCT-3′ (SEQ ID NO. 38) complementary to rat PRG-3 sequence (SEQ ID NO. 23). The oligonucleotide was synthesized by Metabion (Munich, Germany). The specificity was confirmed by a BLAST GenBank search to rule out cross-hybridization with other genes. We used the protocol as previously described (Brauer et al., 2001, supra).
Six rats, weighing 200-300 g, were weight-paired (±10 g per pair). These animals received a single i.p. injection of kainic acid (10 mg/kg bodyweight; from Ocean Products Int., Canada) freshly dissolved in 0.9% saline. Behavior was then observed constantly for 24 hr via video time lapse recordings. […] Severity of seizures was scored for 4 h after kainate injection using the classification of Zhang et al. […] Nissl-positive undamaged neurons were counted in five coronal brain sections per animal (sections were chosen by unbiased sampling), and the mean number of cells per section were determined such that the value obtained for each rat represents an average total number of neurons counted per section (250 μm by 250 μm square in the middle of the CA1 region). […]

[2] = tested on: entorhinal explants; assay: LPA induced neurite retraction in entorhinal explants; type: cell-based, rat; details: 100 nmol/l LPA, 10 min
Description: Entorhinal explants from E16 and P0 rat pups were obtained from timed-pregnant Wistar rats and were cultivated as described (N. E. Savaskan (2000) Eur. I. Neurosci 12:1024-1032). In brief, entorhinal cortex was carefully dissected from the hippocampal anlage and the meninges were removed. Explants were gently transferred with a fire-polished Pasteur pipette into 12-well plates and cultivated on baked glass cover slides coated with laminin and poly-L-lysin (25 μg/ml and 10 μg/ml, respectively) in culture medium containing selenium-defined fetal bovine serum [5%] (N. E. Savaskan et al (2000) FASEB J. e-published) (Neurobasal medium plus 25 μg/ml Penicillin/Streptomycin; B-27 supplement). After 24 h, culture medium was exchanged and cultivation was further performed in serum-free Neurobasalmedium for 20 h. Serum-starved explants were treated with 100 nmol/l oleoyl-LPA (5 mmol/l stock solution in ultra-filtrated water) for 10 min or with vehicle (0.9% NaCl) and then fixed in 4% paraformaldehyde for 20 min. For F-actin staining, fixed tissues were incubated with TRITC-phalloidin (0.1 μg/ml, Sigma, Germany) for 40 min, followed by incubation with HOECHST 33258 dye (1:20,000, Sigma, Germany) for 5 min at room temperature. […] Images were taken with a CCD camera on an Olympus BX-50 microscope and quantification was performed using the Meta Morph analysis system (Universal Imaging, PA). […]

[3] = tested on: N1E-115 mouse neuroblastoma cells; assay: LPA induced neurite retraction and protection in transfected N1E-115 cells; type: cell-based
Description: The rat PRG-1 full length clone was amplified by Marathon PCR (Clontech, USA) from adult rat hippocampus RNA (SEQ ID No. 17). For transfection studies, the full length PRG-1 coding sequence was fused to EGFP (pEGFP-N1 vector Clontech, USA). The PRG-1^His/Lys exchange mutant at the catalytic histidine (His-252) was introduced in the same protein fusion vector by site specific mutagenesis (CAT to AAG).
(§1) N1E-115 mouse neuroblastoma cells (ATCC: CRL-2263) were routinely grown in DMEM medium supplemented with selenium-defined fetal bovine serum (10%). The cells were seeded on baked glass cover slides at a density of 10,000 cells/cm^2. The next day, cells were transfected with the cationic lipids procedure (FuGene6, Roche, Germany) and cultivated for 24 h. Serum-starvation was performed for 20 h in DMEM medium, followed by treatment with 10 μmol/l oleoyl-LPA or vehicle (0.9% sodium chloride) (K. Jalink et al (1993) Cell Growth Differ. 4:247-255). After 10 min, cells were fixed in 4% paraformaldehyde for 20 min at room temperature and further analysis processed as described above. Images were taken with a CCD camera on an Olympus BX-50 microscope. Quantification was performed with the Meta Morph analysis system (University Imaging, PA). For statistical analysis Statview II was used (Abacus, USA). The effects of transfection on cell viability were analysed by MTT assay and propidium iodide staining (Savaskan N. E. et al. (2002) FASEB J. 17:112-114).

[4] = tested on: N1E-115 cells; assay: Ecto-phosphatase activity (extracellular LPA degradation) in transfected N1E-115 cells; type: cell-based, mouse
Description: The assay procedures used were adapted from those described in Imai et al. (2000) J. Clin. Endocrinol. Metab 85:3370-3375 and Hooks S. B. et al. (2001) J. Biol. Chem. 276:4611-4621. Briefly, transfected cells were harvested after serum-free cultivation for 20 h by scraping in lysis buffer (containing 20 mmol/l HEPES pH 7.4, 1 mmol/l NaHCO3, 500 μmol/l DTT, 1 mmol/l EGTA) and sonicated with two strokes (Bandolin GM 70, Germany). After centrifugation at 800×g, the supernatant was diluted in lysis buffer and centrifuged at 100,000×g for 1 h. Alternatively, the supernatant was topped on a sucrose step gradient (50% and 5%) and centrifuged at 100,000×g for 1 h (Savaskan, N. E. et al. (2000) Eur. J. Neurosci. 12:1024-1032. The resulting pellet and interphase, respectively, were re-homogenized and centrifuged again at 100,000×g for 1 h. The crude membrane pellet was re-suspended in reaction buffer (50 mmol/l HEPES pH 7,5; 1 mmol/l EGTA) and protein concentration was determined spectroscopically by Bradford protein assay (Amersham, Germany). Assessment of LPA metabolism was performed with exogenous ^3H-oleoeyl-LPA (Perkin Elmer, Germany) measuring ^3H-oleoeyl-glycerol production. […] All fractions of dried plates were scintillation counted and compared with authentic standards (LPA, 1-monoolein, 1,2-monoolein, oleic acid). […]

[5] = tested on: hyperphosphorylated tau protein; assay: Tau hyperphosphorylation in neurons overexpressing PRG-1 (cell culture model); type: cell-based
Description: Alzheimer's disease is characterized by intracellular neurofibrillary tangle formation formed by tau-based paired helical filaments (PHF) and by extracellular beta-amyloid plaques. The degree of Alzheimer dementia correlates well with the severity of PHF occurrence. These PHF are formed by hyperphosphorylated tau formation. […] To gain insights into the functional role of PRG-1 in Alzheimer's pathology we used an established cell culture model.

[6] = tested on: N1E-115 cells; assay: Cell viability of N1E-115 cells after transfection (MTT assay, propidium iodide staining); type: cell-based, mouse; details: 48-72 h after transfection
Description: as §1

C=C(C)[C@H]1CN[C@H](C(=O)O)[C@H]1CC(=O)O [kainic acid]
PRG-3 mRNA expression in hippocampus ([1]; five days after kainic acid application): comparable levels to the adult non-treated controls | PRG-3 mRNA expression in hippocampus ([1]; six hours after kainic acid application): rapid PRG-3 repression

1- or 2-oleoyl-lysophosphatidic acid [LPA]
neurite retraction in embryonic entorhinal explants ([2]; E16 explants (no PRG-1 expression), n=20): rapid neurite retraction | neurite retraction in postnatal entorhinal explants ([2]; P0 explants (express PRG-1), n=22): did not differ significantly from vehicle treated control cultures | LPA-induced growth cone collapse of N1E-115 cells ([3]; eGFP-only transfected cells, 10 μmol/l LPA, 10 min): uniformly sensitive

B1: PRG-1: plasticity-related gene 1 protein, lipid phosphate phosphatase; rat full length clone expressed by transfection (protein)
chain: MQRAGSSGARGECDISGTGRLRLEQAARLGGRAVHTSPTGGLGARQVAGMSAKERPKGKVIKDSVTLLPCFYFVELPILASSVVSLYFLELTDVFKPVHSGFSCYDRSLSMPYIEPTQEAIPFLMLLSLAFAGPAITIMVGEGILYCCLSKRRNGAGLEPNINAGGCNFNSFLRRAVRFVGVHVVGLCSTALITDIIQLATGYQAPYFLTVCKPMYTSLEGSCKENSYIVEEICSGSDLTVINNGKKSFPSQHATLAAFAAVYVSMYFNSTLTDSSKLLKPLLVFTFIICGIICGLTRITQYKNHPVDVYCGFLIGGGIALYLGLYAVGNFLPSEDSMLQHRDALRSLTDLNQDPSRVLSAKNGSSGDGIAHTEGILNRNHRDASSLTNLKRANADVEIITPRSPMGKESMVTFSNTLPRANTPSVEDPVRRNASIHASMDSARSKQLLTQWKSKNESRKMSLQVMDSEPEGQSPPRSIEMRSSSEPSRVGVNGDHHVPGNQYLKIQPGTVPGCNNSMPAGPRVSIQSRPGSSQLVHIPEETQENISTSPKSSSARAKWLKAAEKTVACNRGNNQPRIMQVIAMSKQQGVLQSSPKNAEGSTVTCTGSIRYKTLTDHEPSGIVRVEAHPENNRPIIQIPSSTEGEGSGSWKWKAPEKSSLRQTYELNDLNRDSESCESLKDSFGSGDRKRKHIDSNEHHHHGITTIRVTPVEGSEIGSETLSVSSSRDSTLRRKGNIILIPERSNSPENTRNIFYKGTSPTRPYKD
increase in ecto-phosphatase activity compared to eGFP transfection alone [4]: 5 fold | increase of LPA needed to overcome resistance against growth cone collapse ([3]; PRG-1 overexpressing N1E-115 cells, LPA dose response): 10 fold | protection against LPA-induced growth cone collapse / retraction of processes ([3]; transfected N1E-115 cells, 10 μmol/l LPA): resistance of N1E-115 cells to LPA-induced growth cone collapse; also recorded: did not prevent CPA-induced retraction of processes | LPA-induced actin-polymerization ([3]; transfected N1E-115 cells, phalloidin staining): prevented LPA-induced actin-polymerization | hyperphosphorylated tau and PHF formation ([5]; PRG-1 overexpression, tau hyperphosphorylation induced with okadaic acid or LPA): significantly decrease | hyperphosphorylated tau protein ([5]; neurons overexpressing PRG-1 vs control transfected cells): significant reduction | cell viability [6]: unaffected
